Data on 4 molecules can be found in patent publication US12618081B2, “Brown marmorated and harlequin stink bug pheromone enzyme synthesis and uses thereof” (VIRGINIA TECH INTELLECTUAL PROPERTIES, INC., priority 2019, dated 2026).

One series deals with H. halys. Particulars: added to a trap containing the two principle components of the H. halys pheromone; cited from earlier work.
The nature of series [1]: TPS activity assay of recombinant M. histrionica IDS-like proteins, GC-MS of hexane extracts. The series is classed as biochemical, Murgantia histrionica. The procedure: (§1) Assays with heterologously expressed protein were performed in assay buffer (see above) in a total volume of 250 μl with partially purified protein, 1 mM DTT, and 50 µM allylic substrate [(E,E)-, (Z,E)- or (Z,Z)-FPP] and incubated at 30° C. for 1 h with a 250 μL hexane overlay. Assays were stopped on ice and compounds extracted by mixing (vortex) at maximum speed for . . . 15 sec. Phases were separated by centrifugation at 4000×g for 10 min and the hexane phase was removed and dried over MgSO4 One μl of liquid sample was injected in splitless mode and analyzed by GC-MS. For identification of the MhTPS product, assays were scaled up by incubating 1 mL protein in a 7 mL screw top test tube and the obtained hexane extract was used for further analysis. To determine enzyme kinetic parameters, assays were performed in a final volume of 50 μL with 0.3 μg partially purified, E. coli expressed MhTPS enzyme and increasing concentrations of [1-3H]-(E,E)-FPP (64 uCi mmol-1). Assays were incubated in triplicate at 30° C. for 5 min prior to extraction of the reaction product with 250 μl hexane. Quantification of the radioactive product were as described by Tholl et al. (Tholl et al., 2005). Calculation of Km and Vmax values was performed by rectangular hyperbolic regression analysis using the Hyperbolic Regression Analysis (HYPER 1.01) software (J. S. Easterby, University of Liverpool).
(§2) GC-MS analysis was performed by liquid injection at 240° C. running in split 5 mode and separated on a GC-2010 gas chromatograph (Shimadzu, Kyoto, Japan) using a 30 m×0.25 mm i.d.×0.25 μm film Zebron ZB-XLB column coupled with a QP2010S mass spectrometer (Shimadzu). The GC program was as follows: 40° C. with 2 min hold, then raised to 220° C. at 5° C./min, then raised to 240° C. at 70° C./min followed by a 2 min hold time. Mass spectrometry was performed with an ion source temperature of 240° C., interface temperature of 280° C., electron ionization (EI) potential of 70 eV and scan range of 50 to 400 atomic mass units. Helium was used as a carrier gas at 1.9 mL/min. Terpene olefin products were identified by comparison of retention times and mass spectra with those of authentic standards.

A short description of series [2]: IDS (prenyltransferase) activity assay of recombinant M. histrionica proteins, LC-MS/MS. The series is classed as biochemical, Murgantia histrionica. Particulars: IPP and DMAPP as substrates. The procedure: For enzyme assays, 96 μl of partially purified protein were mixed with 2 μl 50 μM isopentenyl diphosphate (IPP; Sigma) and 2 μl 50 μM dimethylallyl diphosphate (DMAPP; Sigma) and incubated at 30° C. for 2 h. Analysis of IDS enzyme products was done using an Agilent 1260 HPLC system (Agilent Technologies) coupled to an API 5000 triple-quadrupole mass spectrometer (AB Sciex Instruments) according to the protocol described by Beran et al. (Beran et al., 2016).

A short description of series [3]: Kinetic analysis of E. coli expressed MhTPS with [1-3H]-(E,E)-FPP. The series is classed as biochemical, Murgantia histrionica. The conditions noted are these: (E,E)-FPP as the substrate. The procedure:
as §1

A short description of series [4]: TPS activity assay of recombinant H. halys IDS-like proteins, GC-MS. The class given is biochemical, Halyomorpha halys. The method, then:
Assays with heterologously expressed protein were performed in assay buffer (see above) in a total volume of 100 μl with partially purified protein, 1 mM DTT, and 50 μM allylic substrate [(E,E)-, (Z,E)- or (Z,Z)-FPP] and incubated at 30° C. for 1 h with a 100 μL hexane overlay. Assays were stopped on ice and compounds extracted by mixing (vortex) at maximum speed for 15 sec. Phases were separated by centrifugation at 4000×g for 10 min and the hexane phase was removed and dried over MgSO4. One μl of liquid sample was injected in splitless mode and analyzed by GC-MS.
as §2

Series [5] is described as follows: IDS activity assay of recombinant H. halys HhIDS2, LC-MS. The series is classed as biochemical, Halyomorpha halys. Particulars: IPP and DMAPP. The procedure: For enzyme assays, 96 μl of partially purified protein were mixed with 2 μl 50 μM isopentenyl diphosphate (IPP; Sigma) and 2 μl […] dimethylallyl diphosphate (DMAPP; Sigma) and incubated at 30° C. for 2 h. Analysis of IDS enzyme products was done using an Agilent 1260 HPLC system (Agilent Technologies) coupled to an API 5000 triple-quadrupole mass spectrometer (AB Sciex Instruments) according to the protocol described by Beran et al. (2016).

In general, kcat refers to the number of substrate molecules converted per active site and unit of time at saturation. One may read the Km as the substrate concentration at which the rate is half of its maximum.

As to `CCC\C=C/C=C/C=C/C(=O)OC` [MDT, methyl (E,E,Z)-2,4,6-decatrienoate], in the series on H. halys, the “increase in captured bugs” value is given as 70%.

B1: MhTPS1: IDS-type sesquiterpene (sesquipiperitol) synthase of Murgantia histrionica, 385 aa, GenBank MG662378, SEQ ID NO: 1 (protein)
chain: MVSIAAKSLPKLSGAVFGQFSRRKQLIQRHWLDTRTDQYYDVLRRIVVPECKNIASDVPEYPERIEKLLYYTNPAFSDAWNFTTELIYRTVADESHQTEENITKMYLIRATMDLLFTMSAVLDDISDRSEFRKGKKGWHMICQGGESTALYDGTQMGLFPLYLLKQYFKNDPGYSRLLETVVMTYIKLTIGQTIDVLGQFKKSPSMAEYKRINYYKAGQFVAAGSELAVIHAGITSQDLIDKTVEIFTIAGQIIQTWDDFNDYYSSSEQNGKLSCDFMNAGTTWVSAKAMEVFTPSQAVKFMECYGSDDQSKMKTVQELYDEIDMPKLYTEYVLENYNRCETLIKELPHDRLREACSSYMEWLVVRETPDEDSEHKVALCLNISG
modifications: Murgantia histrionica “harlequin bug” Terpene Synthase (TPS)
For the molecule B1, the “sesquiterpene synthase activity, product” value in series [1] ((E,E)-FPP as a substrate, N-terminal His-tag, E. coli) is reported as “a terpene alcohol as its main product”. The “pH of highest activity” value in series [1] ((E,E)-FPP as substrate) was found to be 7. For the same molecule, the sesquipiperitol production entry in series [1] ((Z,E)-FPP as substrate) is reported as “at lower levels”. For the same molecule, the enzymatic activity result in series [1] ((Z,Z)-FPP as the substrate) is reported as “almost no enzymatic activity”. The “conversion of GPP, products” value in series [1] (GPP as substrate) is listed as “several monoterpene olefins”. Besides, the “increase of activity (relative amount of sesquipiperitol)” value in series [1] (between 0.1 and 10 mM Mg^2+, (E,E)-FPP as substrate) is “approximately 2 fold”. Moreover, in series [1] (incubated with IPP and DMAPP), the “formation of terpene products” value is “no formation of terpene products”. For the same molecule, the “IDS activity: formation of FPP” value in series [2] was “not observed”. Moreover, in series [3], the Vmax is 675.3±53.7 pkat/mg and the kcat came out at 0.03 ± 0.003 s⁻¹. Moreover, the Km in series [3] (read-out: apparent Km) worked out at 4 ± 0.7 µM.

B2: HhIDS1: IDS-type sesquiterpene synthase of Halyomorpha halys, 377 amino acids, main product elemol, GenBank MG917093 (protein)
chain: MIPKTLGNFTGYVLRIALNKKHVNVRHKLDTDIGKYYQTLNDVVIPECMEFVKDAQGLPQRMKECIGYTTPYCYEGWNFCVELLYKTVADKPHQTEENLKKMRILRVLSDMSHSMHFILDDYADKAEFRQGKKIWASICEGGQEAAIYDTFTVNYLINCMLQRHFRNDPGFTKMCEMFSWVNGNSGIGQVLDILDHKNSDFSDYASWKNKVEYKSRNTMCAFPVLGLLHAGLTCNDLIHKTMDIFGDYGLMFQVWNDFMDFYSVQEESGKGNYDCKNNVKTWATITAMSHFNPAQAKEFRDCYGTNDPAKRSRVRELFDEIDLPRKYLDYLRNIRVTVEKKISELSDARVRDASTSYLEWLHGNGHHDVELEILKAP
modifications: HhTPS2
notes: IDS-type sesquiterpene synthase of Halyomorpha halys, 377 amino acids, main product elemol, GenBank MG917093
B2: in series [4] (either (E,E)-FPP or (Z,E)-FPP as substrates), the sesquiterpene products result is “several sesquiterpene olefins and alcohols at low abundance”.

B3: HhIDS2: bona fide IDS enzyme of Halyomorpha halys making (E,E)-FPP, 403 amino acids, GenBank MG870389 (protein)
chain: MPFAKLCVQKLSNPLMKLCYPNLNGRLSLSKFSNSLDNSTFKFLSCNPHTICREHNTVAIRPQTITKDDKRDFMAVFPDIVRDLTQQDPGISDLSTLISKLMQYNVSGGKKVRGLTVVYSYRMLAPDHDLTPENIRLAQILGWCVEMLQGFFVVIDDLTDQSVTRRGRPCWYRLPGIGLRASSDALLIQAGTFQLLQQHCKDKEFYVDLVELFLDATRRTTYGQTLDLVSSFPNITHLTMDRYNFITKYKTSYYTFHLPVAIAMYMAGIYNTELHRQAKSVLLEMGHYFQVQDDYLDVFSDEEVSGKKGTDIQEGKCTWLAIIAFQRASPSQREILESCYGSKDPEKIQKVKDIFIEIGLPAVFHAYEEETYNLITRQIQQLSEGLPHELFLTLLHKMYGRKQ
modifications: HhFPPS
notes: bona fide IDS enzyme of Halyomorpha halys making (E,E)-FPP, 403 amino acids, GenBank MG870389
Turning to B3, the terpene product formation entry in series [4] (FPP isomers as substrate) is given as “did not produce a terpene product”. In addition, in series [5], the “IDS activity: product” value is “only (E,E)-FPP”.
